Test results: ChEMBL document CHEMBL1155708, “Isoaurostatin, a novel topoisomerase inhibitor produced by Thermomonospora alba” (J Nat Prod, 2001)

Substrate: O=C1Oc2cc(O)ccc2/C1=C\c1ccc(O)cc1
Settings: Bos taurus
Description: Activity at calf thymus gland topoisomerase 1 assessed as conversion of supercoiled pBR322 DNA to relaxed form by Lineweaver-Burke plot

B1: DNA topoisomerase (Bos taurus), A0JN73 (protein)
chain: MIFPAAHRALRGLPRPGTRALTRAAMEVALRGVRKILCVAEKNDAAKGIADLLSGGRMRRREGLSRFNKIYEFDYHLCGQNVTMVMTSVSGHLLAHDFRMQFRKWQSCNPLVLFEAEIEKYCPENFVDIKKTLEREAQQCQALVIWTDCDREGENIGFEVIHVCKAVKPSLQVLRARFSEITTRAVRTACENLTEPDQRVSDAVDVRQELDLRIGAAFTRFQTLRLQKIFPEVLAEQLISYGSCQFPTLGFVVERFKAIQAFVPEVFHKIRVTHDHRDGVVEFSWKRHRLFNHTACLVLYQMCMEDPRAMVVEVRSKAKSKWRPQALDTVELEKLASRKLRINAKETMRIAEKLYTQGYISYPRTETNIFPKDLDLAALVEQQTPDPRWGAFARNILERGGPTPRNGNKSDQAHPPIHPTKYTDSLQGDEQRLYELIVRHFLACCSQDAQGQETTVEIDIAQERFVAHGLMILARNYLDVYPYDRWSDKTLPVYEQGTCFQPSTVEMVDGETSPPQLLTEADLIALMEKHGIGTDATHAEHIETIKARMYVGLTPDKRFLPGHLGMGLVEGYDSMGYEMSKPDLRAELEADLKLICEGKKDKLVVLHQQVQKYKQVFIEAVAKARKLDEALSQYFGAATEVAPQDALPAVPEPIRKCPQCSRDMVLKTRKSGGFYLGCTGFPECRSAVWFPDSVLEASRDVSVCPVCQPHPVYRLKFKFKRGSLPPTMPLEFVGCIGGCDETLREILALRFSQGAARVSQPASQTSGYLQASQSLNRMDSGQQGQPRPPVTRPSKALTRTLPPPAVESESNSVTCNCGQEALLLTVRKEGPNQGRQFYKCGSGGCSFFLWADSGHPGAGPPSSASRPPGGPLEHPPGSGTLLGGSSRPGSGGSGGASCLCGQPAVTRTVQKEGPNQGRQFHTCAQPREHQCGFFQWVDENVAPGTFGGPLWPGSRRGTQGLEARSKRPRAGSSDTGSATKKPRKCSLCHQPGHTRPFCPQNR
Q: For B1, which Km is on record?
A: 0.0111 µM
